Test: soluble on expression in E. coli; label from the status in PepcDB or PDB records

Row | Sequence | soluble on expression in E. coli
1 | MGSDKIHHHHHHMGKPRIVILGGGFGGLYTARALHRTFRDTAEIEVITAENYFVFQPLLPEVGAGSVTPIHATSPYRFLLKGVGIRKAMIDSVDFAAKRVTVFQGVQRRPTEVPYDHLVVALGQTVDLSRTPGLEAHALTMKTLEDARRLRAHVIERLEHADITNLPEVKRGALTFTVIGGGFSGIETVGEMAELIDRSLKYYPNVSRDEVRIIVLEFADKVLAEMPEKLRAYAQAQLEKRGVEVCLNTGIASATGTQITTTDGDVIDTRTVVATIGNAPAPVVKRMDLPLTQGRIAVERDLSVPGRDGVWSLGDCALIPMVEDANAREDYAPPTAQFAVREAKQLAANIKRAVDGTALKPFEYTSKGSMASLGARRGIADVMGIRLTGFLAWVLWRAYYVAFLPGFPAKVWVLSHWVLDWVTPRSLVNLSSPKTDASRHIRYAKGDRIYETGNRADTFFTIIEGAVEITNAKGHDGQPTTRRIEPGGHFGERLILGATRRVATARALEDTVVLAMGRDEFLKLTRALPALRDYFEAHLAEKGLDWAPEPDERRDAAE | not soluble
2 | MGSDKIHHHHHHMGLGHEQGFGAPCLKCKENCEGFELHFWRKICRNCKCGQEEHDVLLSNEEDRKVGRLFEDTKYTTLIAKLKSDGIPMYKRNVMILTNPVAAKKNVSINTVTYEWAPPVQNQALARQYMQMLPKEKQPVAGSEGAQYRKKQLAKQLPAHDQDPSKCHELSPKEVKEMEQFVKKYKSEALGVGDVKFPSEMNAQGDKVHNPAGDRHAPAAVASKDKSAESKKTQYSCYCCKHTMNEGEPAIYAERAGYDKLWHPACFICSTCGELLVDMIYFWKNGKLYCGRHYCDSEKPRCAGCDELIFSNEYTQAENQNWHLKHFCCFDCDHILAGKIYVMVTDKPVCKPCYVKNHAVVCQGCHNAIDPEVQRVTYNNFSWHASTECFLCSCCSKCLIGQKFMPVEGMVFCSVECKRMMS | soluble
3 | MGSDKIHHHHHHMGNYQHPGIYVQEIAIAPNIEPVAACLPLFIGHTEKSQDANGHPLPLGKRYSVSSLAEYEEHFGKGAPETLRVLLDGKGNIVNAHSYSPFYLYAAVHQYFANGGGQCEILSVGPYSRAPDASALKAAIRALPLNAAFTLVAIPDAVSLAELPQLQRKLLQYCAQQDYCLAILDVPYCNDQTREMTVNTFRHDIGQRGLQHGAAFMPWLETAAAGISGYVDLEIKYTPGVATAWNDFHKATKLQSHLLHKQLEASPAIRFNRMLPPSGSIMALFEANARKRNIWTTPNHTPIKEIISLSATIDNIIQESLNIHPTGKSINAIRRFDNALLMWGGHTLASNDSEWRYIAHLLTRGFVQASLRRFLDQQTFEKNDEATWSLVGHQCQDFLHTLWREGALVGDKPEQAFYVRIGLNQTMSTQDIAAGRIIVHVGIALLRPAEFIILKLHKVISAPDLKPAITRPGKPVNRVKIRAKTSPINVVIRQRQQPSPPSKPLPSEPVS | not soluble
4 | MGSDKIHHHHHHMGRAPTMEADMRILLLCWRDTTHPQGGGSERYLEHIAKYLVASGHEVIFRTARHTDASRRAVRDGVEYQYAGGKYSVYVRAAVAQLMGRLGVGRLRGVDVAVDTQNGIPFFARVFSGVPTILLTHHCHRRQWDVAGPLIARLGWFIESKVSPWVHRGVRYVTVSEPSRDELVELGVPAGNITIVRNGIDDPPAPMNLPPVTRPHLVTLSRLVPHKQIEHAIDVVRELDGVVLDIIGSGWWEPQLREYARDVADRVIFHGQVAEDHKHALLAQAAVHVMPSRKEGWGLAVIEAGQHGVPTVGYSHSGGLRDSVRGGGVLVETPAQLTCAIRQLLADQRYRDELGRRAYGFASTFSWEDTGREFLRVIAQPQIPAAAHSTKQPNPR | not soluble
5 | MGSDKIHHHHHHMGTKKNFVLDTNVILHDYNCLKNFQENDIYLPIVVLEELDKFKKGNEQINYNAREFVRELDLITDDSLFTHGAPLGEGLGKLFIVTGDSEAPKVHESFPARKPDHQILAVAEYLARKYPKMKNILVTKDVNLRMKARSIGILCEDYITDKVVNVDIFEKSNEVFENIEPDLIDRIYSSREGLDISEFDFKDIIRPNECFILKSDRSSVLARYNPFTHTVCRVNKTKNYGIEPRNAEQSFAFEILNDPDIKLVALTGKAGTGKTLLALAAALGKLTEYKQILLARPIVALSNKDLGFLPGDATEKVAPYMQPLFDNLNVIKRQFASNSTEVKRLEDMQKSEQLVIEALAFIRGRSLSETYCIIDEAQNLTPHEIKTIITRAGEGTKMVFTGDIQQIDQPYLDSQSNGLVYMIDRMKDQNLFAHVNLVKGERSELSELASNLM | not soluble
6 | MGSDKIHHHHHHMHFYRSLGPIRAITFDLDDTLYDNADVIRRTGQESIRFLQEYHPALRDFQADDFQNLRQTLLEREPDIYHDVTEWRRRAVELAMLDRGLSAAESKDGAKAAMENFAHWRSQIAITEETHQTLAALAEKVPLAAITNGNAEPHRFGLERYFSFILRAGPHGRAKPFDDMYHLAAEKLNLPLHEILHVGDDLTTDVAGSIRCGMQACWINLREGSLTQIGDARLLPHIEISRLASLSALL | not soluble
7 | MGSDKIHHHHHHMHHSHHLEIYEKLREKLNKAPIGLPKTVSGVEKELLSVLFDEEEAKIAVHMPFIRFTAEQLAERTGKSLEYVEKILNEMAKKGTVWKGEKDGQTYYRLFPVIVGFAETPFWPGPGKDPRQEKLARLWSQYRKEGFLDEIGDREHPIMRALPERDTISEKSEILPYEDAVKLVKERDYIAVGYCPCRVMARLVGEGCRHSIENCIHMGSVGKYMVEHGLGRRISADEAIEILRQSNREGLVHLTERSKHVATICNCCSDCCVFFKAVHEAKHPNTIAHSSYLATVDTSRCIACGICMLRCPMKAIKAKINREPASVDAEKCLGCGVCVPTCPMEAIELVERDELLELPDGMTYVQELLADKGRDPSGLF | not soluble
8 | MGSDKIHHHHHHMHIVDVTMFYAPASGGVRTYLQAKREILSQVPGLRTSLLVPGAERDSLGNHHTLPALRLPLGQGYRFPLRARLWRDALGALAPDIIEAGDPYVTAWAALDASQRLGVPVVGFYHSDLPRLMGDRFGRQVGRRLERYVVNLYRRFDSVLAPCQAMADRLRDWGIDQVRVQPLGVDLQRFHPSCKDPALREELGLAPETRLLVFIGRNSREKNIDILLATMKRLGNGYHLLLIGPGMPRQVPANVTSFDRCCGIYEVARVLASSDAMLHAGTRETFGLIAQEAMASGIPVVGAKAGALKENVPLGAGILCRPLDPEAMADACQSLFRNDVVASGRYARRYVELHFSWESAMKNLLEHYRQLCASSELHVIPQKA | not soluble
9 | MGSDKIHHHHHHMHMLLSERISLMIRGGYVGRNPNTGKLQQHLQNGYERLQKGDLDAKRFDGAESTAHSMAIIGCSGSGKTTSLRRILNTYPQVIFHPTLNRHQIVYLKIDCSHDGSLKELCLNFFRAIDKVIGSNYEKKYGMKRHGVETMLALMAQTANMFALGLLVIDEIQHLSRAKSGGSEKMLNFFVTMSNTIGIPVLFVGTPKARDIFDLDLRSSRRAAGLGSIFWNPISQYLPDQKSQNPEWIAFTNTLWKLQYLQKRDPILSDEIRDTWFDLSQGILDIVVKLFILAQLRALATGAEKITVELLKRVYEDELKLVHPMLSALRSGIPERIAQFSDLAVPDMDKKIIHLIQKISASTVESEEDRALKQLSNDDQRRIYLMLKDEFPSDSIIFAIQKIVELKPQISRQQLLASIIQAMETDNTTSQVTVTKKKNQRIGLKQWNELEDTDLRHIFSMNSTSPESIYTQLNHHGLILQMSDLLS | not soluble
10 | MGSDKIHHHHHHMHRSKAALVLAGGGVAGAAYEIGALCAIDQVLEHLSVNEFDVYVGTSAGALISACLANNMSPRTLISVLESSLLGIDQLEPHHLYQLNITDLLYRAAHLPGALVQAIQRWVREGGEVSLLDLIETVAVGLPTGLYDSRSLEQYLRAALEQPGRSNRFADLDHELMIVATDLDTGERAIFGLPPLDNVPISLAVCASAAIPIFYRPVRIGDHDYIDGGLRGTASLDVAIERGAELIVCINPMVPFDNRRHPPGAAISDQGIQRIGNQVFRTFIHAGLHYHIKQVRRRHPEVDIILIEPSRQDRTMFAENTMRFHTRMTIARHGFESVARQLCEHYPYYRAMLARHGITISDERIRQDLRNLQMAGDNPHLVRAALVTGGSLHTAPAGLASTLAELDRLLSRLEVTR | not soluble
11 | MGSDKIHHHHHHMHSSEIRYFLVVATTGSLSAASQHLFVAVSAISRQIQRLEERIGVPLFERHARGMVLNDAGRILENHVRKSMMDMDAAVAEIQGLKASRRALLRIGCTEGMAFDLLPTLFARFRQHDPDTTFALKVDSAMQVSQMIRNGEVDIALQFALAPEQGVNVELALPAPLMLLMSDEHPLAQQSIQLADLHPFPLALPESSTTLRQLFDLSCRMNGTFLEPTLCCNNFTTLYYYAMSTPGAVTACSFYSVMYKCLQEPMRLKPLNIKQLDQRSLQIQTLAGKAHAPQQQAFLDFMMAELRQGEAYYLSHMATDMV | not soluble

— the DeepSol protein solubility set
